Reference: PMC9482650, “Quantitative fragmentomics allow affinity mapping of interactomes” (Nature Communications, 2022)
Blank lines part the entries; values can stand above or below the binder they belong to.

Columns and labels:
Assay in all cases: holdup assay
Parameters in all cases: key: below the threshold = too weak to quantify, mostly under pKd 3.1 to 4
GRIP1_5, Q9Y3R0 = molecular target: T1, GRIP1_5, Q9Y3R0
T1 sequence (Q9Y3R0 568-668, limits assumed, looked up): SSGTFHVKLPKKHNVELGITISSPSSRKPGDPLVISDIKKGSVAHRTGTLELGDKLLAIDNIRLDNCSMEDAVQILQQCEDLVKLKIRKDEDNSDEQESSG

DLG4_3, P78352 = molecular target: DLG4_3, P78352
SYNJ2BP, P57105 = molecular target: T2, SYNJ2BP, P57105
T2 sequence (P57105 8-110, limits assumed, looked up): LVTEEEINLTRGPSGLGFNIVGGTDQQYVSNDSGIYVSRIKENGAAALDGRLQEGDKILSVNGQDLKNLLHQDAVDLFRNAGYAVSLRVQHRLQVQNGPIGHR

MAGI2_3, Q86UL8 = molecular target: MAGI2_3, Q86UL8
TIAM2, Q8IVF5 = molecular target: T3, TIAM2, Q8IVF5
T3 sequence (Q8IVF5 885-986, limits assumed, looked up): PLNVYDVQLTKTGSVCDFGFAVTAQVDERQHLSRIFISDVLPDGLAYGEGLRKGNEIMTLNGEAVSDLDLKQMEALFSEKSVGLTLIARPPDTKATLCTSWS

SNTG1, Q9NSN8 = molecular target: T4, SNTG1, Q9NSN8
T4 sequence (Q9NSN8 52-150, limits assumed, looked up): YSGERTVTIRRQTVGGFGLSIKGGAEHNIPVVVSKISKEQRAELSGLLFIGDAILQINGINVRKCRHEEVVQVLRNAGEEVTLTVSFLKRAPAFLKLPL

DLG4_2, P78352 = molecular target: DLG4_2, P78352
NHERF3_4, Q5T2W1 = molecular target: T5, NHERF3_4, Q5T2W1
T5 sequence (Q5T2W1 373-468, limits assumed, looked up): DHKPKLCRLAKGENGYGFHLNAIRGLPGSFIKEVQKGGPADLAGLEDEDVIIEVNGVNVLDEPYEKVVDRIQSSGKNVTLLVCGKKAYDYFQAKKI

SNTG2, Q9NY99 = molecular target: T6, SNTG2, Q9NY99
T6 sequence (Q9NY99 68-166, limits assumed, looked up): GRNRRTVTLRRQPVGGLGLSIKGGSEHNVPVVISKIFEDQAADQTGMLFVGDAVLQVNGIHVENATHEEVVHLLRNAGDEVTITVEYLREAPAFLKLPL

TJP1_2, Q07157 = molecular target: TJP1_2, Q07157
MAGI2_2, Q86UL8 = molecular target: MAGI2_2, Q86UL8
IL16_1, Q14005 = molecular target: IL16_1, Q14005
GRID2IP_1, A4D2P6 = molecular target: GRID2IP_1, A4D2P6
SNX27, Q96L92 = molecular target: SNX27, Q96L92
LDB3, O75112 = molecular target: LDB3, O75112
MAGI3_2, Q5TCQ9 = molecular target: MAGI3_2, Q5TCQ9
LNX2_2, Q8N448 = molecular target: T7, LNX2_2, Q8N448
T7 sequence (Q8N448 334-432, limits assumed, looked up): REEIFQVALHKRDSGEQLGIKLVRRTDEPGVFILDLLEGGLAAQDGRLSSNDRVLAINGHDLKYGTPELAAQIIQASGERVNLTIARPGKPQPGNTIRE

MPDZ_12, O75970 = molecular target: T8, MPDZ_12, O75970
T8 sequence (O75970 1857-1958, limits assumed, looked up): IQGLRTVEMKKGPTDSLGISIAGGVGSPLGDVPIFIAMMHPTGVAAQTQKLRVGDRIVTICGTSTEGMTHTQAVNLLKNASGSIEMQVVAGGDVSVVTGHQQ

MAGI2_5, Q86UL8 = molecular target: MAGI2_5, Q86UL8
SCRIB_2, Q14160 = molecular target: SCRIB_2, Q14160
DLG5_1, Q8TDM6 = molecular target: DLG5_1, Q8TDM6
FRMPD2_1, Q68DX3 = molecular target: FRMPD2_1, Q68DX3
FRMPD2_2, Q68DX3 = molecular target: FRMPD2_2, Q68DX3
NOS1, P29475 = molecular target: NOS1, P29475
PDZRN3_1, Q9UPQ7 = molecular target: T9, PDZRN3_1, Q9UPQ7
T9 sequence (Q9UPQ7 244-349, limits assumed, looked up): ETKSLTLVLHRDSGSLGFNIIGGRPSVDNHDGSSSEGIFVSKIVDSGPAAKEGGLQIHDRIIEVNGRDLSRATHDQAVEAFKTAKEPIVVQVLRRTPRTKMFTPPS

GRID2IP_2, A4D2P6 = molecular target: GRID2IP_2, A4D2P6
TX1BP3, O14907 = molecular target: T10, TX1BP3, O14907
T10 sequence (O14907 10-122, limits assumed, looked up): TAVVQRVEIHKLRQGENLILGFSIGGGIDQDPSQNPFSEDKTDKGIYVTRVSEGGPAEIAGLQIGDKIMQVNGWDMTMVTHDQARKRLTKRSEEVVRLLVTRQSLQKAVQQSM

PARD3_3, Q8TEW0 = molecular target: PARD3_3, Q8TEW0
[1] = plain residues with an end cap or a label only (N-terminal biotin on a linker: ttds)
[2] = plain residues with an end cap or a label only (N-terminal biotin on a linker: ahx)

Chain of DLG4_2, P78352 (P78352 155-259): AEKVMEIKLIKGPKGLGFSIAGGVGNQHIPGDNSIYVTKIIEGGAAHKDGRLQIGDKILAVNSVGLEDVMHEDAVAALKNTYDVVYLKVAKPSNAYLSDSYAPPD
Chain of GRID2IP_2, A4D2P6 (A4D2P6 272-370): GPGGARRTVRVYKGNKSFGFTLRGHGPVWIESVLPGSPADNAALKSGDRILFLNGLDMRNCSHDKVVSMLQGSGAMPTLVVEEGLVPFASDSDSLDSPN
Chain of NOS1, P29475 (P29475 9-101): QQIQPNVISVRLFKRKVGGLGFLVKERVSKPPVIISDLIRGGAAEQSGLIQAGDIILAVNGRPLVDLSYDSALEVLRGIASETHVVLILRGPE
Chain of PARD3_3, Q8TEW0 (Q8TEW0 582-685): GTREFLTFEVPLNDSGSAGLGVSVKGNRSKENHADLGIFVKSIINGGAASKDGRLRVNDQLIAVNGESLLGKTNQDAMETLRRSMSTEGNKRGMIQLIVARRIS
Chain of MAGI2_5, Q86UL8 (Q86UL8 915-1017): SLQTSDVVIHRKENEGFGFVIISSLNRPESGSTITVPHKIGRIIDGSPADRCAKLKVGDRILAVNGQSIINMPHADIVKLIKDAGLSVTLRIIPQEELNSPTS
Chain of LDB3, O75112 (O75112 1-94): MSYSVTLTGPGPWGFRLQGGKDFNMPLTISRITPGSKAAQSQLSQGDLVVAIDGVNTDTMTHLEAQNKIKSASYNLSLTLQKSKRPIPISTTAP
Chain of SCRIB_2, Q14160 (Q14160 857-960): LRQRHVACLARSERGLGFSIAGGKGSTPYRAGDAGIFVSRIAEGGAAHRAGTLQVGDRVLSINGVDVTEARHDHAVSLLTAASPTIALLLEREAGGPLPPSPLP
Chain of FRMPD2_2, Q68DX3 (Q68DX3 944-1038): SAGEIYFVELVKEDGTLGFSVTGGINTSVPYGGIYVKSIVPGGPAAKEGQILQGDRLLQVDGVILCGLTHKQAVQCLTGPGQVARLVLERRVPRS
Chain of FRMPD2_1, Q68DX3 (Q68DX3 770-861): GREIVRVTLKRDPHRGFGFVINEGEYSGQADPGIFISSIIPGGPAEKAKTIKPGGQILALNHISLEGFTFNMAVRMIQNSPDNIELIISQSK
Chain of TJP1_2, Q07157 (Q07157 181-274): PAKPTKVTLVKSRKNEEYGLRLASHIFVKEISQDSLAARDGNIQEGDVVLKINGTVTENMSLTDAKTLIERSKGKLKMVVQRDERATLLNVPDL
Chain of GRID2IP_1, A4D2P6 (A4D2P6 1-87): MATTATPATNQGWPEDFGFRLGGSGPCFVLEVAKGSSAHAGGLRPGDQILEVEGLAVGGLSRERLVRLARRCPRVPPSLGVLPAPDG
Chain of DLG4_3, P78352 (P78352 306-403): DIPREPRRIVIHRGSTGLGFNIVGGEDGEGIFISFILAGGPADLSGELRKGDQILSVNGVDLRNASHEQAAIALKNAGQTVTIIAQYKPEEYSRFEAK
Chain of MAGI3_2, Q5TCQ9 (Q5TCQ9 398-503): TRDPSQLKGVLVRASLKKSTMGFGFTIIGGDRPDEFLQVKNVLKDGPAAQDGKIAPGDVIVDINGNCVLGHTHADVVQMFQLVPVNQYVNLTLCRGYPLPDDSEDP
Chain of MAGI2_3, Q86UL8 (Q86UL8 600-682): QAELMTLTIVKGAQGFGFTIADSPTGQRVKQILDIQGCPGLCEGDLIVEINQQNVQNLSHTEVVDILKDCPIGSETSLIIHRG
Chain of DLG5_1, Q8TDM6 (Q8TDM6 617-713): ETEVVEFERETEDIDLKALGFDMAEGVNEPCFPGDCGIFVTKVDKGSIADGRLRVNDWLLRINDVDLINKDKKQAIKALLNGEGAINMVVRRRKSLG
Chain of MAGI2_2, Q86UL8 (Q86UL8 410-522): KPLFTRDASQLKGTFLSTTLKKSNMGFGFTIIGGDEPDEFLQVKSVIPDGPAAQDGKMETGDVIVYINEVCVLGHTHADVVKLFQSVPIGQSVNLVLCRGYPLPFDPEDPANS
Chain of IL16_1, Q14005 (Q14005 210-306): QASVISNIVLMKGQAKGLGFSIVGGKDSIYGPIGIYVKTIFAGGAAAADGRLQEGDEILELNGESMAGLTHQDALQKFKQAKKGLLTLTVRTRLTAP

- pKd (GRIP1_5, Q9Y3R0; [1]): below the threshold
- pKd (DLG4_3, P78352; [1]): below the threshold
- pKd (SYNJ2BP, P57105; [1]): 4.2
- pKd (MAGI2_3, Q86UL8; [1]): below the threshold
- pKd (TIAM2, Q8IVF5; [1]): below the threshold
- pKd (SNTG1, Q9NSN8; [1]): 4.6
- pKd (DLG4_2, P78352; [1]): 4.43
- pKd (NHERF3_4, Q5T2W1; [1]): below the threshold
- pKd (SNTG2, Q9NY99; [1]): 4.45
- pKd (TJP1_2, Q07157; [1]): below the threshold
- pKd (MAGI2_2, Q86UL8; [1]): below the threshold
- pKd (IL16_1, Q14005; [1]): 3.5
- pKd (GRID2IP_1, A4D2P6; [1]): below the threshold
- pKd (SNX27, Q96L92; [1]): 4.44
- pKd (LDB3, O75112; [1]): below the threshold
- pKd (MAGI3_2, Q5TCQ9; [1]): below the threshold
- pKd (LNX2_2, Q8N448; [1]): below the threshold
- pKd (MPDZ_12, O75970; [1]): below the threshold
- pKd (MAGI2_5, Q86UL8; [1]): below the threshold
- pKd (SCRIB_2, Q14160; [1]): 4.35
- pKd (DLG5_1, Q8TDM6; [1]): below the threshold
- pKd (FRMPD2_1, Q68DX3; [1]): below the threshold
- pKd (FRMPD2_2, Q68DX3; [1]): below the threshold
- pKd (NOS1, P29475; [1]): below the threshold
- pKd (PDZRN3_1, Q9UPQ7; [1]): 4.38
- pKd (GRID2IP_2, A4D2P6; [1]): 3.7
- pKd (TX1BP3, O14907; [1]): 4.28
- pKd (PARD3_3, Q8TEW0; [1]): 3.48
B1: KCNA5, P22460 (peptide)
chain: CLDTSRETDL

- pKd (GRIP1_5, Q9Y3R0; [1]): 3.72
- pKd (DLG4_3, P78352; [1]): 3.56
- pKd (SYNJ2BP, P57105; [1]): 3.65
- pKd (MAGI2_3, Q86UL8; [1]): 4.64
- pKd (TIAM2, Q8IVF5; [1]): below the threshold
- pKd (SNTG1, Q9NSN8; [1]): 4.01
- pKd (DLG4_2, P78352; [1]): 3.67
- pKd (NHERF3_4, Q5T2W1; [1]): 3.53
- pKd (SNTG2, Q9NY99; [1]): 4.03
- pKd (TJP1_2, Q07157; [1]): below the threshold
- pKd (MAGI2_2, Q86UL8; [1]): below the threshold
- pKd (GRID2IP_1, A4D2P6; [1]): below the threshold
- pKd (SNX27, Q96L92; [1]): 4.89
- pKd (LDB3, O75112; [1]): below the threshold
- pKd (MAGI3_2, Q5TCQ9; [1]): 4.03
- pKd (LNX2_2, Q8N448; [1]): 4.25
- pKd (MPDZ_12, O75970; [1]): below the threshold
- pKd (MAGI2_5, Q86UL8; [1]): 4.15
- pKd (SCRIB_2, Q14160; [1]): 3.73
- pKd (DLG5_1, Q8TDM6; [1]): below the threshold
- pKd (FRMPD2_1, Q68DX3; [1]): below the threshold
- pKd (FRMPD2_2, Q68DX3; [1]): 4.19
- pKd (NOS1, P29475; [1]): below the threshold
- pKd (PDZRN3_1, Q9UPQ7; [1]): 4.23
- pKd (GRID2IP_2, A4D2P6; [1]): 4.03
- pKd (TX1BP3, O14907; [1]): below the threshold
- pKd (PARD3_3, Q8TEW0; [1]): 3.55
B2: PTEN, P60484 (peptide)
chain: DEDQHTQITKV

- pKd (GRIP1_5, Q9Y3R0; [2]): below the threshold
- pKd (DLG4_3, P78352; [2]): below the threshold
- pKd (SYNJ2BP, P57105; [2]): below the threshold
- pKd (MAGI2_3, Q86UL8; [2]): below the threshold
- pKd (TIAM2, Q8IVF5; [2]): 4.11
- pKd (SNTG1, Q9NSN8; [2]): below the threshold
- pKd (DLG4_2, P78352; [2]): below the threshold
- pKd (NHERF3_4, Q5T2W1; [2]): below the threshold
- pKd (SNTG2, Q9NY99; [2]): below the threshold
- pKd (TJP1_2, Q07157; [2]): below the threshold
- pKd (MAGI2_2, Q86UL8; [2]): 3.67
- pKd (IL16_1, Q14005; [2]): below the threshold
- pKd (GRID2IP_1, A4D2P6; [2]): below the threshold
- pKd (SNX27, Q96L92; [2]): below the threshold
- pKd (LDB3, O75112; [2]): below the threshold
- pKd (MAGI3_2, Q5TCQ9; [2]): 4.6
- pKd (LNX2_2, Q8N448; [2]): 4.16
- pKd (MPDZ_12, O75970; [2]): below the threshold
- pKd (MAGI2_5, Q86UL8; [2]): 3.57
- pKd (SCRIB_2, Q14160; [2]): below the threshold
- pKd (DLG5_1, Q8TDM6; [2]): below the threshold
- pKd (FRMPD2_1, Q68DX3; [2]): below the threshold
- pKd (FRMPD2_2, Q68DX3; [2]): below the threshold
- pKd (NOS1, P29475; [2]): 3.57
- pKd (PDZRN3_1, Q9UPQ7; [2]): below the threshold
- pKd (GRID2IP_2, A4D2P6; [2]): below the threshold
- pKd (TX1BP3, O14907; [2]): below the threshold
- pKd (PARD3_3, Q8TEW0; [2]): 4.29
B3: NRXN1, Q9ULB1 (peptide)
chain: KKNKDKEYYV
